Our source for the ratio to parent values is PMC9242648.

Positions count from the first letter of the chain named. Names and notes keep the numbering of the source.

Experiment [1] addresses human essential light chain (MYL3), P08590. As to the kind of experiment: Coomassie SDS-PAGE gel-based light chain loading assay. As to conditions: chain shown with the change;; read off a plot.
Experiment [2] concerns the target T1, human regulatory light chain (MYL2), P10916.
T1 chain: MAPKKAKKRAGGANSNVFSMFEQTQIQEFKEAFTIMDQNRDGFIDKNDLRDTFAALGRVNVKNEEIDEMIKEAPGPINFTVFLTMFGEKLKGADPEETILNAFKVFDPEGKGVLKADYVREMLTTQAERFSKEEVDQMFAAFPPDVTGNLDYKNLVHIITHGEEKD
The description is as above. As to conditions: chain shown with the change;; read off a plot.

Sequence of human essential light chain (MYL3), P08590 (P08590 whole entry): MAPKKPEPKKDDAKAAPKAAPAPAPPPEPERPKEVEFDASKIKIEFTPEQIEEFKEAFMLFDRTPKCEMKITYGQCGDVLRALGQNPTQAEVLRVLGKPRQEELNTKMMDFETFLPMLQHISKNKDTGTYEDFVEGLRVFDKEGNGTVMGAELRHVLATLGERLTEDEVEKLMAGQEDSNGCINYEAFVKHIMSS

B1: human β-cardiac myosin 2-hep heavy chain, wild type A797T (protein)
chain: MGDSEMAVFGAAAPYLRKSEKERLEAQTRPFDLKKDVFVPDDKQEFVKAKIVSREGGKVTAETEYGKTVTVKEDQVMQQNPPKFDKIEDMAMLTFLHEPAVLYNLKDRYGSWMIYTYSGLFCVTVNPYKWLPVYTPEVVAAYRGKKRSEAPPHIFSISDNAYQYMLTDRENQSILITGESGAGKTVNTKRVIQYFAVIAAIGDRSKKDQSPGKGTLEDQIIQANPALEAFGNAKTVRNDNSSRFGKFIRIHFGATGKLASADIETYLLEKSRVIFQLKAERDYHIFYQILSNKKPELLDMLLITNNPYDYAFISQGETTVASIDDAEELMATDNAFDVLGFTSEEKNSMYKLTGAIMHFGNMKFKLKQREEQAEPDGTEEADKSAYLMGLNSADLLKGLCHPRVKVGNEYVTKGQNVQQVIYATGALAKAVYERMFNWMVTRINATLETKQPRQYFIGVLDIAGFEIFDFNSFEQLCINFTNEKLQQFFNHHMFVLEQEEYKKEGIEWTFIDFGMDLQACIDLIEKPMGIMSILEEECMFPKATDMTFKAKLFDNHLGKSANFQKPRNIKGKPEAHFSLIHYAGIVDYNIIGWLQKNKDPLNETVVGLYQKSSLKLLSTLFANYAGADAPIEKGKGKAKKGSSFQTVSALHRENLNKLMTNLRSTHPHFVRCIIPNETKSPGVMDNPLVMHQLRCNGVLEGIRICRKGFPNRILYGDFRQRYRILNPAAIPEGQFIDSRKGAEKLLSSLDIDHNQYKFGHTKVFFKAGLLGLLEEMRDERLSRIITRIQAQSRGVLTRMEYKKLLERRDSLLVIQWNIRAFMGVKNWPWMKLYFKIKPLLKSAEREKEMASMKEELEDKVEELLSKNYHLENEVARL
Consider B1, for which the ratio to parent was 0.96 in experiment [1] and 0.97 in experiment [2].

B2: human β-cardiac myosin 2-hep heavy chain, wild type S782N (protein)
chain: B1 chain with S782N, T797A
Turning to B2, the ratio to parent in experiment [1] was found to be 1.1; in experiment [2], 1.2.

B3: human β-cardiac myosin 2-hep heavy chain, wild type F834L (protein)
chain: B1 chain with T797A, F834L
For B3, the ratio to parent in experiment [1] amounted to 1; in experiment [2], 1.1.
